In IntAct's records for PubMed 25910212:

B1: U4/U6 small nuclear ribonucleoprotein Prp31 (Homo sapiens), Q8WWY3 (parent)
chain: MSLADELLADLEEAAEEEEGGSYGEEEEEPAIEDVQEETQLDLSGDSVKTIAKLWDSKMFAEIMMKIEEYISKQAKASEVMGPVEAAPEYRVIVDANNLTVEIENELNIIHKFIRDKYSKRFPELESLVPNALDYIRTVKELGNSLDKCKNNENLQQILTNATIMVVSVTASTTQGQQLSEEELERLEEACDMALELNASKHRIYEYVESRMSFIAPNLSIIIGASTAAKIMGVAGGLTNLSKMPACNIMLLGAQRKTLSGFSSTSVLPHTGYIYHSDIVQSLPPDLRRKAARLVAAKCTLAARVDSFHESTEGKVGYELKDEIERKFDKWQEPPPVKQVKPLPAPLDGQRKKRGGRRYRKMKERLGLTEIRKQANRMSFGEIEEDAYQEDLGFSLGHLGKSGSGRVRQTQVNEATKARISKTLQRTLQKQSVVYGGKSTIRDRSSGTASSVAFTPLQGLEIVNPQAAEKKVAEANQKYFSSMAEFLKVKGEKSGLMST
partner: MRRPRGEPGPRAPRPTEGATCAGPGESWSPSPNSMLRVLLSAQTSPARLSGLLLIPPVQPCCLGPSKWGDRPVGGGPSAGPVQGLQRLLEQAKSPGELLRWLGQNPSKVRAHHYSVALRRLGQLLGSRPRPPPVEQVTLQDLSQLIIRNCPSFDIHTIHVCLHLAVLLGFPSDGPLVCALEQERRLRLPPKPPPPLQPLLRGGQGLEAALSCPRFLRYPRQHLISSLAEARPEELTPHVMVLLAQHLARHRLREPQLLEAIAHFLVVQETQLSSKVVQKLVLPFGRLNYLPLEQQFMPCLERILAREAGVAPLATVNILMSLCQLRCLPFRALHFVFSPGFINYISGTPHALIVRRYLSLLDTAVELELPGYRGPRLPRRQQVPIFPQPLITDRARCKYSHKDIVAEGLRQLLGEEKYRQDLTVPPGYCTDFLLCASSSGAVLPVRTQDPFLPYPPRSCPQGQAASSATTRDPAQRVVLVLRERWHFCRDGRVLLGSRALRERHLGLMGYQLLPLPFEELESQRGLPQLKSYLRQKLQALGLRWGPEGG
B2: Cullin-4B (Homo sapiens), Q13620 (parent)
chain: MMSQSSGSGDGNDDEATTSKDGGFSSPSPSAAAAAQEVRSATDGNTSTTPPTSAKKRKLNSSSSSSSNSSNEREDFDSTSSSSSTPPLQPRDSASPSTSSFCLGVSVAASSHVPIQKKLRFEDTLEFVGFDAKMAEESSSSSSSSSPTAATSQQQQLKNKSILISSVASVHHANGLAKSSTTVSSFANSKPGSAKKLVIKNFKDKPKLPENYTDETWQKLKEAVEAIQNSTSIKYNLEELYQAVENLCSYKISANLYKQLRQICEDHIKAQIHQFREDSLDSVLFLKKIDRCWQNHCRQMIMIRSIFLFLDRTYVLQNSMLPSIWDMGLELFRAHIISDQKVQNKTIDGILLLIERERNGEAIDRSLLRSLLSMLSDLQIYQDSFEQRFLEETNRLYAAEGQKLMQEREVPEYLHHVNKRLEEEADRLITYLDQTTQKSLIATVEKQLLGEHLTAILQKGLNNLLDENRIQDLSLLYQLFSRVRGGVQVLLQQWIEYIKAFGSTIVINPEKDKTMVQELLDFKDKVDHIIDICFLKNEKFINAMKEAFETFINKRPNKPAELIAKYVDSKLRAGNKEATDEELEKMLDKIMIIFRFIYGKDVFEAFYKKDLAKRLLVGKSASVDAEKSMLSKLKHECGAAFTSKLEGMFKDMELSKDIMIQFKQYMQNQNVPGNIELTVNILTMGYWPTYVPMEVHLPPEMVKLQEIFKTFYLGKHSGRKLQWQSTLGHCVLKAEFKEGKKELQVSLFQTLVLLMFNEGEEFSLEEIKQATGIEDGELRRTLQSLACGKARVLAKNPKGKDIEDGDKFICNDDFKHKLFRIKINQIQMKETVEEQASTTERVFQDRQYQIDAAIVRIMKMRKTLSHNLLVSEVYNQLKFPVKPADLKKRIESLIDRDYMERDKENPNQYNYIA
partner: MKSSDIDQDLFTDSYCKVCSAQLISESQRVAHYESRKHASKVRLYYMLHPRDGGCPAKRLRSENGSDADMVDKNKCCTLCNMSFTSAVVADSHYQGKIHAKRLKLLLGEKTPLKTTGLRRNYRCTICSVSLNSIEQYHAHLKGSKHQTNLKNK
B3: U4/U6 small nuclear ribonucleoprotein Prp31 (Homo sapiens), Q8WWY3 (parent)
chain: B1 chain
partner: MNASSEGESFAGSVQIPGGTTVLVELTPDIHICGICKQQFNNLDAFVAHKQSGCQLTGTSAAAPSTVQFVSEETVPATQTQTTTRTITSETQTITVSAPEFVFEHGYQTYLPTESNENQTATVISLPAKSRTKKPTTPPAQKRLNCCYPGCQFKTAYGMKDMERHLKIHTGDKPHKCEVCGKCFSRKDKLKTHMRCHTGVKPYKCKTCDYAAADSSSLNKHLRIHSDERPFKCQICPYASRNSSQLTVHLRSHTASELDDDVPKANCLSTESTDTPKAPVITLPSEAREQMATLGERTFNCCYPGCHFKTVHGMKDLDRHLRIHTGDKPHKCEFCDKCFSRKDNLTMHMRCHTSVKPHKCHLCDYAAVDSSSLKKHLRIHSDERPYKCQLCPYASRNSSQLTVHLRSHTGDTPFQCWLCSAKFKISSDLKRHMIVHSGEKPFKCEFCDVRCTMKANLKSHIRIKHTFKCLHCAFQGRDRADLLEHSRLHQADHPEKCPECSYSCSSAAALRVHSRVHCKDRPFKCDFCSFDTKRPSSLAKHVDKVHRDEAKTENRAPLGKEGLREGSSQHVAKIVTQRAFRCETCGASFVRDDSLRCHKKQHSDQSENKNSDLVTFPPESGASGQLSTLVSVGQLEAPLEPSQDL
B4: SH2 domain-containing protein 1A (Homo sapiens), O60880 (parent)
chain: MDAVAVYHGKISRETGEKLLLATGLDGSYLLRDSESVPGVYCLCVLYHGYIYTYRVSQTETGSWSAETAPGVHKRYFRKIKNLISAFQKPDQGIVIPLQYPVEKKSSARSTQGTTGIREDPDVCLKAP
partner: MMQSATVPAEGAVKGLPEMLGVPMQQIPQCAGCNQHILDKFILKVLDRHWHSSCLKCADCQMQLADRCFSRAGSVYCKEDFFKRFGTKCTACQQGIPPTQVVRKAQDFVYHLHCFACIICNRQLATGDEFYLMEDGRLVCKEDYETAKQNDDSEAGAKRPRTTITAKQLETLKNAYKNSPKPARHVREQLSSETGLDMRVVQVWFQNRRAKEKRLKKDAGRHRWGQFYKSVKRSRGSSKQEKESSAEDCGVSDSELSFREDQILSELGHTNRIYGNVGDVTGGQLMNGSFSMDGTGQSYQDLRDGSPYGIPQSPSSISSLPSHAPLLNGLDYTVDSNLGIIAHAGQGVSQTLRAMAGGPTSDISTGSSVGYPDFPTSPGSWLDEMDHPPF
B5: Adiponectin (Homo sapiens), Q15848 (parent)
chain: MLLLGAVLLLLALPGHDQETTTQGPGVLLPLPKGACTGWMAGIPGHPGHNGAPGRDGRDGTPGEKGEKGDPGLIGPKGDIGETGVPGAEGPRGFPGIQGRKGEPGEGAYVYRSAFSVGLETYVTIPNMPIRFTKIFYNQQNHYDGSTGKFHCNIPGLYYFAYHITVYMKDVKVSLFKKDKAMLFTYDQYQENNVDQASGSVLLHLEVGDQVWLQVYGEGERNGLYADNDNDSTFTGFLLYHDTN
partner: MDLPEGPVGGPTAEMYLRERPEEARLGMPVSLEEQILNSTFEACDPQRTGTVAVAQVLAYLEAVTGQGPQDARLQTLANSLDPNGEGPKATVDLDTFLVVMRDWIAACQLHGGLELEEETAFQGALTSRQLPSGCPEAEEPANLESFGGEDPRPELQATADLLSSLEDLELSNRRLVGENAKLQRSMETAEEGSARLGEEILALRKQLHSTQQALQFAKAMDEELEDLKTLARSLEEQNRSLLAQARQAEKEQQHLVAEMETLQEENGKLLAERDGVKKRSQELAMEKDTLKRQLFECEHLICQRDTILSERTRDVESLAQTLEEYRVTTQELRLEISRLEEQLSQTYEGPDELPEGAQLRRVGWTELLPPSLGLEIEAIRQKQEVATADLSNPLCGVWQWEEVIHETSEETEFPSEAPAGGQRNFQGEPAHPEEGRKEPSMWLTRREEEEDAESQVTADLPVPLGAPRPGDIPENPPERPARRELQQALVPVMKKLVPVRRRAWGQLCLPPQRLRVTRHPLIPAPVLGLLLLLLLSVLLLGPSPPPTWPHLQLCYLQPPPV
B6: Cytochrome P450 1A1 (Homo sapiens), P04798 (parent)
chain: MLFPISMSATEFLLASVIFCLVFWVIRASRPQVPKGLKNPPGPWGWPLIGHMLTLGKNPHLALSRMSQQYGDVLQIRIGSTPVVVLSGLDTIRQALVRQGDDFKGRPDLYTFTLISNGQSMSFSPDSGPVWAARRRLAQNGLKSFSIASDPASSTSCYLEEHVSKEAEVLISTLQELMAGPGHFNPYRYVVVSVTNVICAICFGRRYDHNHQELLSLVNLNNNFGEVVGSGNPADFIPILRYLPNPSLNAFKDLNEKFYSFMQKMVKEHYKTFEKGHIRDITDSLIEHCQEKQLDENANVQLSDEKIINIVLDLFGAGFDTVTTAISWSLMYLVMNPRVQRKIQEELDTVIGRSRRPRLSDRSHLPYMEAFILETFRHSSFVPFTIPHSTTRDTSLKGFYIPKGRCVFVNQWQINHDQKLWVNPSEFLPERFLTPDGAIDKVLSEKVIIFGMGKRKCIGETIARWEVFLFLAILLQRVEFSVPLGVKVDMTPIYGLTMKHACCEHFQMQLRS

Variants of: B1
Settings: with fastk_human FASTK

Row | effect of a mutation on the interaction | Variant
1 | with no effect | L107V

Variants of: B2
Settings: with ZMAT4, Q9H898-2

Row | effect of a mutation on the interaction | Variant
2 | with no effect | V745A
3 | with no effect | T213I

Variants of: B3
Settings: with zf64b_human ZFP64, Q9NTW7

Row | effect of a mutation on the interaction | Variant
4 | with no effect | L107V

Variants of: B4
Settings: with lhx4_human LHX4, Q969G2

Row | effect of a mutation on the interaction | Variant
5 | with no effect | G93D
6 | with no effect | R32T
7 | with no effect | P101L

Variants of: B5
Settings: with kash5_human KASH5, Q8N6L0

Row | effect of a mutation on the interaction | Variant
8 | with no effect | Y111H
9 | with no effect | I164T

Variants of: B6
Settings: with CMTM5, Q96DZ9-2
Chain of CMTM5, Q96DZ9-2 (Q96DZ9 other isoform, or with tags, fused parts or gaps): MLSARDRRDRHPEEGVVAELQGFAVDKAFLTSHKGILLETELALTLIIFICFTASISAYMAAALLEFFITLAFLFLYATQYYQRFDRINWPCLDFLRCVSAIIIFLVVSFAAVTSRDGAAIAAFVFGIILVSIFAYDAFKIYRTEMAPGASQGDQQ

Row | effect of a mutation on the interaction | Variant
10 | with no effect | T461N
